{
  "source": "patent US20230059341A1",
  "about": "(TESARO, published 2023)",
  "key": {"[1]": {"target": "T1, human PD-1 on PD-1 effector cells (Jurkat T cells, Promega #J1155) (human, UniProt Q15116 25-288)", "T1 sequence (Q15116 25-288)": "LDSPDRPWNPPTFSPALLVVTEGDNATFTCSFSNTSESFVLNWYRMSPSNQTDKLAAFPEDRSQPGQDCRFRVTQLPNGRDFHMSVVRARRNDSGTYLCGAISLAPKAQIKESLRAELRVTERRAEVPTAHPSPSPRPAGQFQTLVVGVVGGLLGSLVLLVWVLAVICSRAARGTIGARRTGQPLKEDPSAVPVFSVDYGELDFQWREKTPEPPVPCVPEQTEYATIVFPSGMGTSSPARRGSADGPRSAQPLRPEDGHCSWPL", "assay": "cell-based or functional assay"}, "[2]": {"target": "T2, Neonatal Fc Receptor (FcRn) (UniProt P55899 24-297; P61769 21-119, limits assumed)", "T2 sequence (P55899 24-297 limits assumed, chain 1 of 2)": "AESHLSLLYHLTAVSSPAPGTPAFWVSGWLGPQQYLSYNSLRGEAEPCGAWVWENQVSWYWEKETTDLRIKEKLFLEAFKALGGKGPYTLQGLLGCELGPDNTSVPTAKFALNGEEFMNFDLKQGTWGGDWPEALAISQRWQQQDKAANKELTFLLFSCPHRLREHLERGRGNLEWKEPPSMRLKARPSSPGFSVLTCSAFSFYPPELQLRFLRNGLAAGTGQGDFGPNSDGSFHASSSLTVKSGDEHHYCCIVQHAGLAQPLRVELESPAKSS", "T2 sequence (P61769 21-119 limits assumed, chain 2 of 2)": "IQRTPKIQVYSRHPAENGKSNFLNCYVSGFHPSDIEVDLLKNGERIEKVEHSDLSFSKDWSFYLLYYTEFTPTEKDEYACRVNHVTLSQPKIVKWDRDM", "assay": "FcRn binding assay, BIACORE (SPR)"}, "[3]": {"target": "T3, PD-1 protein constitutively expressed on engineered CHO K1 cells (UniProt Q15116 25-288, limits assumed)", "T3 construct": "whole, on cells; also called programmed cell death protein 1", "T3 sequence (Q15116 25-288 limits assumed, change not shown)": "as the sequence (Q15116 25-288) above", "assay": "MSD potency assay: competitive binding on CHO K1 cells expressing PD-1, inhibition of PD-L1-mFc binding, ECL; percent of reference material", "description": "(§1) The Meso Scale Discovery (MSD) potency assay employs engineered CHO K1 cells constitutively expressing the PD-1 protein. […] The readout is measured using a specific detection antibody mixture that releases an electrochemiluminescence (ECL) signal that can be quantified."}, "[4]": {"target": "T2, Neonatal Fc Receptor (FcRn)", "assay": "FcRn binding assay, BIACORE (SPR)", "remark": "listed apart in the source"}, "[5]": {"target": "T1, human PD-1 on PD-1 effector cells …", "assay": "cell-based or functional assay", "remark": "listed apart in the source"}, "[6]": {"target": "T1, human PD-1 on PD-1 effector cells …", "assay": "cell-based or functional assay", "remark": "listed apart in the source"}, "[7]": {"target": "T3, PD-1 protein constitutively expressed …", "assay": "MSD potency assay: competitive binding on CHO K1 cells expressing PD-1, inhibition of PD-L1-mFc binding, ECL; percent of reference material", "remark": "listed apart in the source", "description": "as §1"}, "[8]": {"target": "T2, Neonatal Fc Receptor (FcRn)", "assay": "FcRn binding assay, BIACORE (SPR)", "remark": "listed apart in the source"}, "[9]": {"target": "T1, human PD-1 on PD-1 effector cells …", "assay": "cell-based or functional assay", "remark": "listed apart in the source"}, "[10]": {"target": "T2, Neonatal Fc Receptor (FcRn)", "assay": "FcRn binding assay, BIACORE (SPR)", "remark": "listed apart in the source"}, "[11]": {"target": "T2, Neonatal Fc Receptor (FcRn)", "assay": "FcRn binding assay, BIACORE (SPR)", "remark": "listed apart in the source"}, "[12]": {"target": "T3, PD-1 protein constitutively expressed …", "assay": "MSD potency assay: competitive binding on CHO K1 cells expressing PD-1, inhibition of PD-L1-mFc binding, ECL; percent of reference material", "remark": "listed apart in the source", "description": "as §1"}, "[13]": {"target": "T1, human PD-1 on PD-1 effector cells …", "assay": "cell-based or functional assay", "remark": "listed apart in the source"}, "[14]": {"target": "T2, Neonatal Fc Receptor (FcRn)", "assay": "FcRn binding assay, BIACORE (SPR)", "remark": "listed apart in the source"}, "[15]": {"target": "T3, PD-1 protein constitutively expressed …", "assay": "MSD potency assay: competitive binding on CHO K1 cells expressing PD-1, inhibition of PD-L1-mFc binding, ECL; percent of reference material", "remark": "listed apart in the source", "description": "as §1"}, "[16]": {"target": "T2, Neonatal Fc Receptor (FcRn)", "assay": "FcRn binding assay, BIACORE (SPR); T0 (exposed to H2O2, no incubation)"}},
  "note": "Where two headings read alike, the source gives them in different places.",
  "data": [
    {"binder": "Dostarlimab, Unstressed Control (antibody, human IgG4 S228P, kappa, percent of population: Met 248 oxidation 3.0; Asp 261/266/276 isomerization 1.0; Asn 311 deamidation 6.0; Asn 380 deamidation 8.4; Asn 430 deamidation 1.2; Lys 443 clipped 97.8, Control of the forced degradation study (DS batch #1); HMW 0.9%) heavy: not shown light: DIQLTQSPSFLSAYVGDRVTITCKASQDVGTAVAWYQQKPGKAPKLLIYWASTLHTGVPSRFSGSGSGTEFTLTISSLQPEDFATYYCQHYSSYPWTFGQGTKLEIKRTVAAPSVFIFPPSDEQLKSGTASVVCLLNNFYPREAKVQWKVDNALQSGNSQESVTEQDSKDSTYSLSSTLTLSKADYEKHKVYACEVTHQGLSSPVTKSFNRGEC", "values": [
      {"measurement": "Relative Potency (Potency by cell-based bioassay)", "setting": "[1]", "value": 98, "unit": "%"},
      {"measurement": "Kd", "setting": "[2]", "value": 2140, "unit": "nM"},
      {"measurement": "Relative Potency, MSD Binding", "setting": "[3]", "value": 88, "unit": "%"},
      {"measurement": "Kd", "setting": "[4]", "value": 2140, "unit": "nM"},
      {"measurement": "Relative Potency, Cell-Based Bioassay", "setting": "[5]", "value": 98, "unit": "%"},
      {"measurement": "Relative Potency, Cell-Based Bioassay", "setting": "[6]", "value": 98, "unit": "%"},
      {"measurement": "Relative Potency, MSD Binding", "setting": "[7]", "value": 88, "unit": "%"},
      {"measurement": "Kd", "setting": "[8]", "value": 2140, "unit": "nM"},
      {"measurement": "Relative Potency, Cell-Based Bioassay", "setting": "[9]", "value": 98, "unit": "%"},
      {"measurement": "Kd", "setting": "[10]", "value": 2140, "unit": "nM"},
      {"measurement": "Kd", "setting": "[11]", "value": 2140, "unit": "nM"},
      {"measurement": "Relative Potency, MSD Binding", "setting": "[12]", "value": 88, "unit": "%"},
      {"measurement": "Relative Potency, Cell-Based Bioassay", "setting": "[13]", "value": 98, "unit": "%"},
      {"measurement": "Kd", "setting": "[14]", "value": 2140, "unit": "nM"},
      {"measurement": "Relative Potency, MSD Binding", "setting": "[15]", "value": 88, "unit": "%"}
    ]},
    {"binder": "Dostarlimab, photo degraded, Vis light, 25° C., 1 week and UV light, 25° C., 1 week (antibody, human IgG4 S228P, kappa, percent of population: Trp 50 oxidation 4.8; percent of population: Met 248 oxidation 33.4; Asp 261/266/276 isomerization 1.0; Asn 311 deamidation 6.4; Met 354 oxidation 10.9; Asn 380 deamidation 9.5; Asn 385 deamidation 1.3; Met 424 oxidation 27.0; Asn 430 deamidation 1.2; Lys 443 clipped 97.8, Mixture; HMW 3.3%; also called Photolysis) heavy: not shown light: DIQLTQSPSFLSAYVGDRVTITCKASQDVGTAVAWYQQKPGKAPKLLIYWASTLHTGVPSRFSGSGSGTEFTLTISSLQPEDFATYYCQHYSSYPWTFGQGTKLEIKRTVAAPSVFIFPPSDEQLKSGTASVVCLLNNFYPREAKVQWKVDNALQSGNSQESVTEQDSKDSTYSLSSTLTLSKADYEKHKVYACEVTHQGLSSPVTKSFNRGEC", "values": [
      {"measurement": "Relative Potency (Potency by cell-based bioassay)", "setting": "[1]", "value": 90, "unit": "%"},
      {"measurement": "Kd", "setting": "[2]", "value": 2490, "unit": "nM"}
    ]},
    {"binder": "Dostarlimab, H2O2 treated, T0 (exposed to H2O2, no incubation) (antibody, human IgG4 S228P, kappa, percent of population: Asn 137 deamidation 1.3; percent of population: Met 103 oxidation 1.2; Met 248 oxidation 47.1; Asn 311 deamidation 6.8; Met 354 oxidation 16.7; Asn 380 deamidation 10.7; Asn 385 deamidation 1.7; Met 424 oxidation 29.0; Lys 443 clipped 97.2, 0.1% (v:v) H2O2, quenched at once with methionine; also called H2O2 T0; Peroxide (H2O2) Oxidation) heavy: not shown light: DIQLTQSPSFLSAYVGDRVTITCKASQDVGTAVAWYQQKPGKAPKLLIYWASTLHTGVPSRFSGSGSGTEFTLTISSLQPEDFATYYCQHYSSYPWTFGQGTKLEIKRTVAAPSVFIFPPSDEQLKSGTASVVCLLNNFYPREAKVQWKVDNALQSGNSQESVTEQDSKDSTYSLSSTLTLSKADYEKHKVYACEVTHQGLSSPVTKSFNRGEC", "values": [
      {"measurement": "Relative Potency (Potency by cell-based bioassay)", "setting": "[1]", "value": 94, "unit": "%"},
      {"measurement": "Kd", "setting": "[16]", "value": 4380, "unit": "nM"},
      {"measurement": "Relative Potency, MSD Binding", "setting": "[3]", "value": 95, "unit": "%"},
      {"measurement": "Relative Potency, Cell-Based Bioassay", "setting": "[5]", "value": 94, "unit": "%"}
    ]}
  ]
}
